The values that follow come from paper PMC3659600.

Substrate in this data set: O=[N+]([O-])c1ccc(O[C@@H]2O[C@H](CO)[C@@H](O)[C@H](O)[C@H]2O)cc1
Briefly: purified protein. Conditions: pH 6.0 sodium phosphate 50 mM, 37 °C, 0.1-5 mM substrate.

B1: BglF3 (Flavobacterium johnsoniae UW101) (protein)
chain: KNKMIYLSAALVFAFFTSCKNETQTSASNSSQTEEYVGKEISTDHDAEIDKLISQMTLEEKIGMLHGNSMFANAGVKRLGIPELKMADGPLGVREEISRDNWAPAGWTNDFATYYPAGGALAATWNAEMAHTFGTSLGEELRARDKDMLLSPAINMVRTPLGGRTYEYMSEDPFLNKKIAVPLVVGLQEKDVMACVKHYAANNQETNRDFVDVQIDERTLREIYLPAFEATVKEAKAYSIMGAYNKFRGEYLCENDYMLNKILRDEWGFKGVVVSDWAAVHSTAKSLKNGLDIEMGTPKPFNEFFLADKLIAAVKSGEVSEKEIDLHVKRILRVLFQVKAMGGGERAKGSIATEAHYQDAYKIAAEAIILLKNENNALPLKLDGVKSIAVIGNNATKKNALGGFGAGVKTKREVTPLEGLKNRLPSSVKINYAEGYLEKYEEKNKGNLGNITSTGPVTIDKLDPAKVQEAVEAAKKSDVAIIFAGSNRDYETEASDRRDLHLPFGQEELIKKVIEANPKTIVVMIAGAPFDLNEVSQKSSALVWSWFNGSEGGNALADVILGKVNPSGKLPWTMPKQLKDSPAHATNSFPGDKAVNYAEGILIGYRWFDTKNVAPLYPFGYGLSYTTFALDNAKTDKDSYAQNDVIEVTVDVKNTGKVDGKEVVQLYTSKSDSKITRAAQELKGFKKADVKAGGSEKITIKVPVKELAYYDVAAKKWTVEPGKYTIKLGTSSRDIKKEINFTIK
Broadly, the Km is the concentration of substrate that gives half-maximal velocity. With B1, the Km amounted to 0.91 ± 0.02 mM.
